From patent US20180346605A1 (Janssen / Centocor, published 2018)

T1: FcγRIIa soluble extracellular domain, C-terminal His-tag (UniProt P12318 34-217, limits assumed)
T1 construct: extracellular domain
T1 sequence (looked up): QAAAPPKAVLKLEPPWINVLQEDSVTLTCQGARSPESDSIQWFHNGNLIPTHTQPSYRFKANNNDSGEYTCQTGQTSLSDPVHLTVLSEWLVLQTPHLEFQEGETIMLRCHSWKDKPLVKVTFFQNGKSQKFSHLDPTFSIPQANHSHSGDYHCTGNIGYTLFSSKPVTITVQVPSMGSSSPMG

T2: FcγRIIb soluble extracellular domain, C-terminal His-tag (UniProt P31994 43-217, limits assumed)
T2 construct: extracellular domain
T2 sequence (looked up): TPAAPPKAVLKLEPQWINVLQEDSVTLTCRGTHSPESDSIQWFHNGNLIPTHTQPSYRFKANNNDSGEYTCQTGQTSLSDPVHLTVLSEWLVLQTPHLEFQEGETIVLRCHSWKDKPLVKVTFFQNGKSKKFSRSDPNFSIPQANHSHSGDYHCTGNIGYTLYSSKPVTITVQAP

B1: bsRSV-L[Q311R] (bispecific antibody, human IgG1, kappa)
heavy 1: not shown
light 1: EIVLTQSPGTLSLSPGERATFSCRSSHSIRSRRVAWYQHKPGQAPRLVIHGVSNRASGISDRFSGSGSGTDFTLTITRVEPEDFALYYCQVYGASSYTFGQGTKLERKRTVAAPSVFIFPPSDEQLKSGTASVVCLLNNFYPREAKVQWKVDNALQSGNSQESVTEQDSKDSTYSLSSTLTLSKADYEKHKVYACEVTHQGLSSPVTKSFNRGEC
heavy 2: not shown
light 2: not shown
notes: also called bispecific anti-RSV/gp120 with asymmetrical F405L Q311R
B2: bsRSV-L[TLQ] (bispecific antibody, human IgG1, kappa)
heavy 1: not shown
light 1: B1 light 1
heavy 2: not shown
light 2: not shown
notes: also called bispecific anti-RSV/gp120 with asymmetrical F405L/T307P/L309Q/Q311R

Legend:
[1] = target: T1, FcγRIIa soluble extracellular domain, …; test: AlphaScreen competition at pH 7.2: unlabeled competitor antibody titrated against biotinylated wild-type IgG1 (legend: mAb RSV-L) on streptavidin donor beads for His-tagged FcγRIIa (10 ng/mL) on nickel acceptor beads
[2] = target: T3, FcγRIIIa soluble extracellular domain, C-terminal His-tag (UniProt P08637 17-208, limits assumed); test: AlphaScreen competition at pH 7.2: unlabeled competitor antibody titrated against biotinylated wild-type IgG1 (legend: mAb RSV-L) on streptavidin donor beads for His-tagged FcγRIIIa (200 ng/mL) on nickel acceptor beads
T3 construct: extracellular domain

[3] = target: T4, His-tagged FcRn (UniProt P55899 24-297; P61769 21-119); test: AlphaScreen competition at pH 6.0: unlabeled competitor antibody titrated against biotinylated wild-type IgG1 (legend: mAb RSV-L) on streptavidin donor beads for His-tagged FcRn on nickel acceptor beads
T4 construct: also called neonatal Fc receptor

[4] = target: T5, FcγRI soluble extracellular domain, C-terminal His-tag (UniProt P12314 16-292, limits assumed); test: AlphaScreen competition at pH 7.2: unlabeled competitor antibody titrated against biotinylated IgG1-L234A/L235A (legend: mAb RSV-L) on streptavidin donor beads for His-tagged FcγRI (200 ng/mL) on nickel acceptor beads
T5 construct: extracellular domain

[5] = target: T2, FcγRIIb soluble extracellular domain, …; test: AlphaScreen competition at pH 7.2: unlabeled competitor antibody titrated against biotinylated wild-type IgG1 (legend: mAb RSV-L) on streptavidin donor beads for His-tagged FcγRIIb (14 ng/mL) on nickel acceptor beads

Binder	IC50 (read off the curve) [1]	IC50 (read off the curve) [2]	IC50 (read off the curve) [3]	IC50 (read off the curve) [4]	IC50 (read off the curve) [5]
B1	~100 nM	~80 nM	~50 nM	~4 nM	~100 nM
B2	~100 nM	~80 nM	~100 nM	~4 nM	
